Here are results for 13 molecules from patent US20080124811A1 (AbbVie / Abbott, published 2008).

In test [1] the target is T1, human brain natriuretic peptide, cyclic BNP (1-32c) (human, cyclic: ring closed by a disulfide bond between the two cysteine residues; biotinylated or acridinium-labelled in some assays).
T1 construct: also called hBNP; hBNP 1-32
The test is described as follows: Biacore SPR, antibody captured on goat anti-mouse Fc, BNP injected, 1:1 Langmuir fit. Background: SPR reads the build-up and loss of mass on a sensor chip optically.
Experimental: GAMFc in 10 mM sodium acetate (pH 5.0) is coupled to the activated surface with a 10 minute injection. The surface is then deactivated with 1 M ethanolamine pH 8.5 for 8 minutes followed by another 10 minute injection of GAMFc. This is followed with a biosensor conditioning of ten 60 second injections of 150 mM H₃PO₄ at a flow rate of 30 μL/min. ˜14 kRU, resonance units, of GAMFc is coupled to the biosensor in each flow cell.
After loading each Ab onto the biosensor, all flow cells are allowed to equilibrate for 5-6 minutes with SPR running buffer at a flow rate of 75 μL/min before a 150 μL injection of BNP or running buffer followed by 360 seconds of dissociation time. Subsequently, the flow rate is changed to 30-100 μL/min and the surface is then regenerated with three 33-60 second pulses of 100-150 mM phosphoric acid at a flow rate of 30-100 μL/min.

In test [2] the target is T1, human brain natriuretic peptide, cyclic …. The test can be described thus: surface plasmon resonance (BIAcore).
The target is the same in test [3]. The test is described as follows: KinExA, solution phase. (Kinetic exclusion samples the free partner from a solution-phase mixture.)
Test [4] has the same target. The test can be described thus: BIAcore SPR, cAb captured on goat anti-human Fc, BNP in solution, 25 C.
Experimental: The carboxymethyl-dextran biosensor is activated with an 8 minute injection of a 1:1 mixture of 0.4 M EDC and 0.1 NHS at 20 μL/minute. GAHFc in 10 mM sodium acetate (pH 5.0) is coupled to the activated surface with a 10 minute injection. The surface is then deactivated with 1 M ethanolamine pH 8.5 for 8 minutes followed by another 10 minute injection of GAHFc.
A frozen (−80° C.) aliquot of BNP in dH₂O at 100 μM is diluted into SPR Running Buffer to a concentration of 100 μM.
The sample solution is then switched back to SPR running buffer for another ˜7 hours. The surface is then regenerated with three 33 second pulses of 100 mM phosphoric acid at a flow rate of 100 μL/min.
For test [5] the target is unchanged. The test can be described thus: … sandwich CMIA; capture 106.3AM1 on microparticles, detection 3-631-436-acridinium; second particle type.
Experimental: An aliquot containing a calibrator solution was delivered to the same well of the reaction vessel as the microparticles to form a reaction mixture. The calibrator solution contained hBNP full-length peptide. The microparticles coated with the capture antibody in a Tris/BSA diluent were pipetted by the sampling probe into the appropriate wells of the reaction vessel in the sampling center. […] After the incubation, the reaction mixture was washed with the […] ® Line Diluent to remove any of the calibrator that was not captured. The […] ® Line Diluent is commercially available from Abbott Laboratories, Abbott Park, Ill.
(§1) The mAb-Acridinium-conjugates at about 50-100 ng/mL were dispensed into the reaction vessel and incubated for approximately 4 minutes at a temperature of about 37° C. After the incubation, the reaction vessel was washed with the […] ® Line Diluent to remove the unbound materials.
A solution of hydrogen peroxide and then sodium hydroxide was added to the reaction vessel and the chemiluminescent signal was measured by the chemiluminescent microparticle immunoassay (CMIA) optical assembly of the […] ® instrument.
Test [6] has the same target. The test is described as follows: … sandwich CMIA; capture 106.3AM1 on microparticles, detection 3-631-436-acridinium.
Experimental: An aliquot containing a calibrator solution was delivered to the same well of the reaction vessel as the microparticles to form a reaction mixture. The calibrator solution contained hBNP full-length peptide. The microparticles coated with the capture antibody in a Tris/BSA diluent were pipetted by the sampling probe into the appropriate wells of the reaction vessel in the sampling center. […] After the incubation, the reaction mixture was washed with the […] ® Line Diluent to remove any of the calibrator that was not captured.
as §1
The […] ® system measures the acridinium signals which are typically measured in relative light units (hereinafter “rlu's”). Measurements were made in triplicate.
Test [7] shares this target. The test can be described thus: off-rate assay on yeast-displayed scFv by flow cytometry: biotinylated cyclic BNP (1-32c), chase with unlabelled BNP 1-32c, SA:PE, first order decay fit. A general note: A flow cytometer gives signals particle by particle.
For test [8] the target is unchanged. The test can be described thus: off-rate assay on yeast-displayed scFv; improvement of koff over 3-631-436 wt.

What is called Kd is the concentration at which binding is half-saturated. The low end stands for a tighter complex, the high end for a looser complex. Usually koff stands for the rate constant with which the complex falls apart. Lower therefore signals a long-lived complex. Usually kon stands for the rate constant with which the complex forms. Lower therefore signals slower complex formation.

B1: 3-631-436 (mIgG2bκ, IgG name AM1) (antibody, V domains shown)
VH: QVQLQQPGAELVRPGASVKLSCKASGYTFTSYWMNWVKQRPEQGLEWIGRIDPYDSETHYNQKFKDKAILTVDKSSSTAFVQLTSLTSEDSAVYYCVSDGYWGAGTTVTVSS
VL: DVVMTQTPLTLSVTTGQPASISCKSSQSLLDSDGKTYLNWLFQRPGESPKLLIYVVSKLESGVPDRFTGSGSGTDFTLKISRVEAEDLGVYYCLQATHFPWTFGGGTKLEIKR
notes: recombinant wild-type variable domains on mouse IgG2b/kappa
As to B1, in test [1], the Kd was 0.363 nM, the koff was determined as 0.0029 s⁻¹ and the kon amounted to 8.4e+06 M⁻¹ s⁻¹.

B2: 106.3 wt (Mouse IgG1) (antibody, V domains shown)
VH: QLVQSGPELRKPGETVKISCKGSGYTFTHYGINWVKQTPRKDLKWMGWINTHTGEPIYADDFKGRFAFSLETSANTAYLQINNLNNGDMGTYFCTRSHRFGLDYWGQGTSVTVSS
VL: DNVLTQSPPSLAVSLGQRATISCKASQSVDYNGDSYLNWYQQKPGQPPKFLIYAASNLESGIPARFSGSGSGTDFNLNIHPVEEEDAATYYCQQSNEDPFTFGSGTKLEIKR
notes: also called HB-12044
As for B2, in test [2], binding was characterised by a dissociation constant (Kd) of 0.018 nM, the koff came out at 0.00022 s⁻¹ and the kon came to 1.2e+07 M⁻¹ s⁻¹.

B3: wild-type 106.3 chimeric antibody (cAb) (antibody, human IgG1, V domains shown)
VH: QIQLVQSGPELRKPGETVKISCKGSGYTFTHYGINWVKQTPRKDLKWMGWINTHTGEPIYADDFKGRFAFSLETSANTAYLQINNLNNGDMGTYFCTRSHRFGLDYWGQGTSVTVSS
VL: DNVLTQSPPSLAVSLGQRATISCKASQSVDYNGDSYLNWYQQKPGQPPKFLIYAASNLESGIPARFSGSGSGTDFNLNIHPVEEEDAATYYCQQSNEDPFTFGSGTKLEIK
notes: Chimeric mouse variable domains on human IgG1/human kappa; also called anti-BNP WT/WT
In test [3], B3 displayed a Kd of 0.0017 nM. In test [4], this molecule registered a Kd of 0.019 nM, a koff of 0.00015 s⁻¹ and an on-rate constant (kon) of 7.8e+06 M⁻¹ s⁻¹.

B4: 106.3 AM1 chimeric antibody (antibody, V domains shown)
VH: QIQLVQSGPELRKPGETVKISCKGSGYTFTHYGINWVKQTPRKDLKWMGWINTHTGEAYYADDFKGRFAFSLETSANTAYLQINNLNNGDMGTYFCTRSHRFGLDYWGQGTSVTVSS
VL: DNVLTQSPPSLAVSLGQRATISCKANWPVDYNGDSYLNWYQQKPGQPPKFLIYAASNLESGIPARFSGSGSGTDFNLNIHPVEEEDAATYYCQQSNEDPFTFGSGTKLEIK
modifications: Conjugated to acridinium or biotinylated in the sandwich assays (Examples 4 and 7); the sites are not defined.
notes: PTA-6987; Acridinium-conjugated or biotinylated in the sandwich assays
Regarding B4, in test [5], the “Ratio B/A (RLU at 30 pg/mL over 0 pg/mL)” value was 1, the “Ratio C/A (RLU at 300 pg/mL over 0 pg/mL)” value was found to be 5.5, the “Ratio D/A (RLU at 1000 pg/mL over 0 pg/mL)” value came out at 40.5 and the “Ratio E/A (RLU at 2000 pg/mL over 0 pg/mL)” value was found to be 132. The same molecule had a Kd in test [3] of 0.0093 nM. In test [4], this molecule yielded a Kd of 0.0019 nM, a koff of 2.4e-05 s⁻¹ and an on-rate constant (kon) of 1.3e+07 M⁻¹ s⁻¹. Moreover, in test [6], the “Ratio B/A (RLU at 30 pg/mL over 0 pg/mL)” value was determined as 1.6, the “Ratio C/A (RLU at 300 pg/mL over 0 pg/mL)” value was determined as 17.5, the “Ratio D/A (RLU at 1000 pg/mL over 0 pg/mL)” value turned out to be 126 and the “Ratio E/A (RLU at 2000 pg/mL over 0 pg/mL)” value is 394.

B5: 500-2 (scFv)
scFv (VH-linker-VL with V5 and 6His tags), displayed on yeast: QVQLQQPGAELVRPGASVKLSCKASGYTFTSYWMNWVKQRPEQGLEWIGRIDPYDSETHYNQKFKDKAILTVDKSSSTAFVQLTSLTSEDSAVYYCVSDGYWGAGTTVTVSSGPAKELTPLKEAKVSDVVMTQTPLTLSVTTGQPASISCKSSQSLLDSDGKTYLNWLFQRPGESPKLLIYWTTKLESGVPDRFTGSGSGTDFTLKISRVEAEDLGVYYCLQATHFPWTFGGGTKLEIKRAAALESRGPFEGKPIPNPLLGLDSTRTGHHHHHH
notes: selected by on/off-rate sorting; member of group m17
In test [7], B5 had a koff of 0.00032 s⁻¹. Further, the “Fold Improvement” value in test [8] amounted to 15 fold.

B6: 500-10 (scFv)
scFv (VH-linker-VL with V5 and 6His tags), displayed on yeast: QVQLQQPGAELVRPGASVKLSCKASGYTFTSYWMNWVKQRPEQGLEWIGRIDPYDSETHYNQKFKDKAILTVDKSSSTAFVQLTSLTSEDSAVYYCVSDGYWGAGTTVTVSSGPAKELTPLKEAKVSDVVMTQTPLTLSVTTGQPASISCKSSQSLLDSDGKTYLNWLFQRPGESPKLLIYVTDILESGVPDRFTGSGSGTDFTLKISRVEAEDLGVYYCLQATHFPWTFGGGTKLEIKRAAALESRGPFEGKPIPNPLLGLDSTRTGHHHHHH
notes: as for B5
The molecule B6 displayed a koff in test [7] of 0.00049 s⁻¹. Further, the “Fold Improvement” value in test [8] worked out at 10 fold.

B7: L2 10 (scFv)
scFv (VH-linker-VL with V5 and 6His tags), displayed on yeast: QVQLQQPGAELVRPGASVKLSCKASGYTFTSYWMNWVKQRPEQGLEWIGRIDPYDSETHYNQKFKDKAILTVDKSSSTAFVQLTSLTSEDSAVYYCVSDGYWGAGTTVTVSSGPAKELTPLKEAKVSDVVMTQTPLTLSVTTGQPASISCKSSQSLLDSDGKTYLNWLFQRPGESPKLLIYRTNKLESGVPDRFTGSGSGTDFTLKISRVEAEDLGVYYCLQATHFPWTFGGGTKLEIKRAAALESRGPFEGKPIPNPLLGLDSTRTGHHHHHH
notes: selected by off-rate sorting; member of group m17
As to B7, the koff in test [7] worked out at 0.0019 s⁻¹. Further, the “Fold Improvement” value in test [8] worked out at 3 fold.

B8: L2 4 (scFv)
scFv (VH-linker-VL with V5 and 6His tags), displayed on yeast: QVQLQQPGAELVRPGASVKLSCKASGYTFTSYWMNWVKQRPEQGLEWIGRIDPYDSETHYNQKFKDKAILTVDKSSSTAFVQLTSLTSEDSAVYYCVSDGYWGAGTTVTVSSGPAKELTPLKEAKVSDVVMTQTPLTLSVTTGQPASISCKSSQSLLDSDGKTYLNWLFQRPGESPKLLIYHTTKLESGVPDRFTGSGSGTDFTLKISRVEAEDLGVYYCLQATHFPWTFGGGTKLEIKRAAALESRGPFEGKPIPNPLLGLDSTRTGHHHHHH
notes: selected by equilibrium sorting; member of group m17
Molecule B8 returned a koff in test [7] of 0.0014 s⁻¹. Besides, the “Fold Improvement” value in test [8] is 4 fold.

B9: 500-1 (scFv)
scFv (VH-linker-VL with V5 and 6His tags), displayed on yeast: QVQLQQPGAELVRPGASVKLSCKASGYTFTSYWMNWVKQRPEQGLEWIGRIDPYDSETHYNQKFKDKAILTVDKSSSTAFVQLTSLTSEDSAVYYCVSDGYWGAGTTVTVSSGPAKELTPLKEAKVSDVVMTQTPLTLSVTTGQPASISCKSSQSLLDSDGKTYLNWLFQRPGESPKLLIYWMDKLESGVPDRFTGSGSGTDFTLKISRVEAEDLGVYYCLQATHFPWTFGGGTKLEIKRAAALESRGPFEGKPIPNPLLGLDSTRTGHHHHHH
notes: as for B5
On to B9, for which the koff in test [7] was found to be 0.00053 s⁻¹. Moreover, the “Fold Improvement” value in test [8] is 9 fold.

B10: L2 7 (scFv)
scFv (VH-linker-VL with V5 and 6His tags), displayed on yeast: QVQLQQPGAELVRPGASVKLSCKASGYTFTSYWMNWVKQRPEQGLEWIGRIDPYDSETHYNQKFKDKAILTVDKSSSTAFVQLTSLTSEDSAVYYCVSDGYWGAGTTVTVSSGPAKELTPLKEAKVSDVVMTQTPLTLSVTTGQPASISCKSSQSLLDSDGKTYLNWLFQRPGESPKLLIYWMTKLESGVPDRFTGSGSGTDFTLKISRVEAEDLGVYYCLQATHFPWTFGGGTKLEIKRAAALESRGPFEGKPIPNPLLGLDSTRTGHHHHHH
notes: as for B8
Take B10: the koff in test [7] was 0.00015 s⁻¹. For the same molecule, the “Fold Improvement” value in test [8] came out at 32 fold.

B11: L2 9 (scFv)
scFv (VH-linker-VL with V5 and 6His tags), displayed on yeast: QVQLQQPGAELVRPGASVKLSCKASGYTFTSYWMNWVKQRPEQGLEWIGRIDPYDSETHYNQKFKDKAILTVDKSSSTAFVQLTSLTSEDSAVYYCVSDGYWGAGTTVTVSSGPAKELTPLKEAKVSDVVMTQTPLTLSVTTGQPASISCKSSQSLLDSDGKTYLNWLFQRPGESPKLLIYVTDKLESGVPDRFTGSGSGTDFTLKISRVEAEDLGVYYCLQATHFPWTFGGGTKLEIKRAAALESRGPFEGKPIPNPLLGLDSTRTGHHHHHH
notes: as for B7
On to B11, for which the koff in test [7] amounted to 0.0005 s⁻¹. For the same molecule, the “Fold Improvement” value in test [8] was 10 fold.

B12: L2 1 (scFv)
scFv (VH-linker-VL with V5 and 6His tags), displayed on yeast: QVQLQQPGAELVRPGASVKLSCKASGYTFTSYWMNWVKQRPEQGLEWIGRIDPYDSETHYNQKFKDKAILTVDKSSSTAFVQLTSLTSEDSAVYYCVSDGYWGAGTTVTVSSGPAKELTPLKEAKVSDVVMTQTPLTLSVTTGQPASISCKSSQSLLDSDGKTYLNWLFQRPGESPKLLIYQNTKLESGVPDRFTGSGSGTDFTLKISRVEAEDLGVYYCLQATHFPWTFGGGTKLEIKRAAALESRGPFEGKPIPNPLLGLDSTRTGHHHHHH
notes: as for B8
The molecule B12 showed a koff in test [7] of 0.00025 s⁻¹. The “Fold Improvement” value in test [8] was determined as 19 fold.

B13: L2 8 (scFv)
scFv (VH-linker-VL with V5 and 6His tags), displayed on yeast: QVQLQQPGAELVRPGASVKLSCKASGYTFTSYWMNWVKQRPEQGLEWIGRIDPYDSETHYNQKFKDKAILTVDKSSSTAFVQLTSLTSEDSAVYYCVSDGYWGAGTTVTVSSGPAKELTPLKEAKVSDVVMTQTPLTLSVTTGQPASISCKSSQSLLDSDGKTYLNWLFQRPGESPKLLIYWMNKLESGVPDRFTGSGSGTDFTLKISRVEAEDLGVYYCLQATHFPWTFGGGTKLEIKRAAALESRGPFEGKPIPNPLLGLDSTRTGHHHHHH
notes: as for B8
Regarding B13, the koff in test [7] came out at 0.00017 s⁻¹. In test [8], the “Fold Improvement” value was determined as 28 fold.
